{"source": "patent US7547676B2", "about": "“Antagonist peptides to the C5A chemotactic function of vitamin D binding protein” (The Research Foundation of State University of New York, priority 2004, dated 2009)", "key": {"[1]": {"test_system": "differentiated HL-60 cells", "assay": "Chemotaxis assay, differentiated HL-60 cells responding to C5a, C5a plus DBP or ZAS", "format": "cell-based, Human", "conditions": "differentiated HL-60 cells; for enhancement of C5a-mediated chemotaxis (net cell movement): 100 pM C5a (FIG. 1: 25-200 pM) plus 50 nM of indicated DBP, 60 min at 37° C", "experimental": "Cells (6×10^6/ml) were resuspended in chemotaxis buffer and treated either with chemotaxis buffer (control), 1 μM of peptide 1 (130-152), or 1 μM of peptide 2 (150-172) for 30 min at room temperature. The chemotactic response of differentiated HL-60 cells to 100 pM C5a alone, C5a plus 50 nM full-length natural DBP or 1% zymosan-activated serum (ZAS) was measured for 60 minutes at 37° C. Numbers represent net cell movement in 60 min, mean±SEM of 3 experiments.\n(§1) Cells and cell culture: Human promyelocytic cell line HL-60 was obtained from ATCC (Rockville, Md.) and cultured in RPMI 1640 medium supplemented with 10% FBS. Differentiation of HL-60 cells was initiated with 250 μM Bt2cAMP for 48 hours.\nChemotaxis assay. Chemotaxis was performed as described previously (see Kew, R. R. et al., J. Leukoc. Biol. 58, 55-58 (1995)). In brief, 35 μl of C5a (0.01 to 1 nM) in the chemotaxis buffer (HBSS with 1% BSA, 10 mM HEPES) were placed in duplicate in the lower chamber of a 48-well chamber (Neuroprobe, Md.). The lower compartments were covered with a 5 μm pore cellulose nitrate filter and then 50 μl of the cell suspension (2.5×10^5/well) was pipetted into the upper compartments. The chemotactic chamber was incubated for 1 hour at 37° C. in a humidified incubator with 5% CO2. Following incubation, the filter was fixed, stained and mounted on a microscope slide. Cell movement was measured as the distance in microns that the leading front of the cells had migrated into the filter (see Zigmond, S. et al., J. Exp. Med. 137, 387 (1973))."}, "[2]": {"test_system": "differentiated HL-60 cells", "assay": "Ligand-induced calcium mobilization (Fluo-3 AM) in differentiated HL-60 cells", "format": "cell-based, Human", "conditions": "untreated cells, DBP and C5a added simultaneously"}, "[3]": {"test_system": "differentiated HL-60 cells", "assay": "Ligand-induced calcium mobilization (Fluo-3 AM) in differentiated HL-60 cells", "format": "cell-based, Human", "conditions": "differentiated HL-60 cells incubated 30 min with 50 nM of indicated DBP, then C5a", "experimental": "as §1\nLigand-induced calcium mobilization. Calcium mobilization studies were performed using the Fluo-3 AM probe as described previously (see Merritt, J. E. et al., Biochem. J. 269, 513-519 (1990)). Differentiated HL-60 cells (1×10^7 cells/ml) were resuspended in HBSS-1% BSA containing 2 μM Fluo-3 AM (Molecular Probes, Eugene, Oreg.) and incubated at 37° C. for 40 minutes. Cells incubated without the dye were used as a control to measure autofluorescence (Fmin). Following the dye uptake, cells were washed twice then suspended at 5×10^6 cells/ml in HBSS containing 1% BSA. Half of the cell suspension was treated with 50 nM DBP for 30 min at room temperature, the other half served as the untreated control. For each measurement, 400 μl of cell suspension (with or without DBP) was added to a cuvette and stimulated with various concentrations of purified C5a at room temperature (22-24° C.). Fluorescence was then measured immediately using a Perkin-Elmer LS-5 fluorometer at 505 nm excitation, 526 nm emission for Fluo-3 AM. Fmax was measured by treating labeled cells with 60 μM digitonin. Intracellular free calcium concentrations were calculated using the following formula: (Ca^2+)=Kd (F−Fmin)/(Fmax−F), where Kd=325 nM for Fluo-3 according to manufacturer (Molecular Probes)."}, "[4]": {"test_system": "U937-C5aR cells", "assay": "C5a-induced intracellular calcium mobilization in U937-C5aR cells", "format": "cell-based, human", "conditions": "FIG. 11A; cells pretreated 30 min at 22° C. with 50 nM DBP", "experimental": "FIG. 11A and FIG. 11B show the effect of DBP on C5a-induced intracellular calcium mobilization in U937-C5aR cells. U937-C5aR cells (10^7 cells/ml) were resuspended in HBSS-1% BSA containing 2 μM Fluo-3 AM and incubated at 37° C. for 40 minutes. Cells incubated without the dye were used as a control to measure autofluorescence (Fmin). Following the dye uptake, cells were washed twice then suspended at 5×10^6 cells/ml in HBSS containing 1% BSA. For the pretreatment experiments, cells were incubated for 30 min at 22° C. with 50 nM DBP or 0.5 μM DBP peptide 1 (p1). For each measurement, 400 μl of cell suspension was added to a cuvette and stimulated with the indicated concentration of C5a (FIG. 11A) or 0.1 nM C5a (FIG. 11B). Fluorescence was then measured immediately using a Perkin-Elmer LS-5 fluorometer at 505 nm excitation, 526 nm emission for Fluo-3 AM. Fmax was measured by treating labeled cells with 60 μM digitonin. Intracellular free calcium concentrations were calculated using the following formula: (Ca^2+)=Kd (F−Fmin)/(Fmax−F), where Kd=325 nM for Fluo-3 according to manufacturer (Molecular Probes). Data are presented as mean±SEM (n=4-6) of the increase in intracellular calcium concentration.\nU937-C5aR cells (10^7 cells/ml) were resuspended in HBSS-1% BSA containing 2 μM Fluo-3 AM and incubated at 37° C. for 40 minutes. Cells incubated without the dye were used as a control to measure autofluorescence (Fmin). Following the dye uptake, cells were washed twice then suspended at 5×10^6 cells/ml in HBSS containing 1% BSA. Cells were incubated for 30 min at 22° C. with either 50 nM DBP or 0.5 μM DBP peptide. For each measurement, 400 μl of cell suspension was added to a cuvette and stimulated with 0.1 nM purified C5a. Fluorescence was then measured immediately using a Perkin-Elmer LS-5 fluorometer at 505 nm excitation, 526 nm emission for Fluo-3 AM. Fmax was measured by treating labeled cells with 60 μM digitonin. Intracellular free calcium concentrations were calculated using the following formula: (Ca2+)=Kd (F−Fmin)/(Fmax−F), where Kd=325 nM for Fluo-3 according to manufacturer (Molecular Probes)"}}}
{"molecule": "DBP: Purified human DBP obtained from Biodesign International (protein) LERGRDYEKNKVCKEFSHLGKEDFTSLSLVLYSRKFPSGTFEQVSQLVKEVVSLTEACCAEGADPDCYDTRTSALSAKSCESNSPFPVHPGTAECCTKEGLERKLCMAALKHQPQEFPTYVEPTNDEICEAFRKDPKEYANQFMWEYSTNYGQAPLSLLVSYTKSYLSMVGSCCTSASPTVCFLKERLQLKHLSLLTTLSNRVCSQYAAYGEKKSRLSNLIKLAQKVPTADLEDVLPLAEDITNILSKCCESASEDCMAKELPEHTVKLCDNLSTKNSKFEDCCQEKTAMDVFVCTYFMPAAQLPELPDVELPTNKDVCDPGNTKVMDKYTFELSRRTHLPEVFLSKVLEPTLKSLGECCDVEDSTTCFNAKGPLLKKELSSFIDKGQELCADYSENTFTEYKKKLAERLKAKLPDATPTELAKLVNKHSDFASNCCSINSPPLYCDSEIDAELKNIL", "values": [{"measurement": "enhancement of C5a-mediated chemotaxis (net cell movement)", "setting": "[1]; listed as natural DBP", "value": "significantly enhanced"}, {"measurement": "enhancement of C5a-mediated chemotaxis (net cell movement)", "setting": "[1]; listed as purified natural DBP", "value": "significantly enhanced movement to C5a"}, {"measurement": "response of cells treated with DBP alone", "setting": "[1]; no C5a, chemotaxis and Ca2+ flux", "value": "no response"}, {"measurement": "calcium influx in response to C5a", "setting": "[2]", "value": "did not show augmented calcium influx"}, {"measurement": "enhancement of intracellular Ca2+ flux in response to C5a", "setting": "[3]", "value": "significantly enhanced intracellular calcium influx"}, {"measurement": "enhancement of intracellular Ca2+ flux in response to C5a", "setting": "[3]; listed as natural DBP", "value": "significantly enhanced"}, {"measurement": "effect on C5a-induced increase in intracellular calcium", "setting": "[4]", "value": "significantly augments"}]}
